Laboratory results reported in the nanobody polyreactivity screen of Harvey et al. (2022).

Assay: yeast display, Sf9 membrane polyspecificity reagent, FACS + sequencing; frameworks hold sequencing errors
Outline: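 Galactose induction of a Saccharomyces cerevisiae BJ5465 synthetic nanobody display library ran 36–48 hours. The cells were then stained for 1 hour at 4 °C with 10% biotinylated, detergent-solubilized Sf9 membrane reagent, pulled down on streptavidin microbeads and FACS-sorted into low and high (top ~1%) gates on expression and reagent-binding fluorescence. Labels for polyreactivity follow the gate of origin.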

For “QVQLVESGGGLVQAGGSLRLSCAASGRTLGDYDMGSYRQAPGKERELVAAINWSGGDTYYADSVKGRFTISRDNANNTVYLQMNSLKPEDSAVYYCNADYVYTRYDYWGQGTQVTVSS”, the “polyreactivity (PSR sort gate)” value was “high polyreactivity”.

In the case of “QVQLVESGGGLVQAGGSLRLSCAASGRTLGGYAMGWYRQAPGKERELVASITSTSSTYADSVKGRFTISRDNAKNTVYLQMNSLKPEDTAVYYCAADYFLTSYGWRIHYTYYYWGQGTQVTVSS”, the “polyreactivity (PSR sort gate)” value is reported as “low polyreactivity”.

With “QVQLVESGGGLVQAGGSLRLSCAASGRTLGGYAMGWYRQAPGKERELVAVITWNGGSTYADSVKGRFTISRDNAKNTVYLQMNSLKPEDTAVYYCAADRFNKPYYYWGQGTQVTVSS” the “polyreactivity (PSR sort gate)” value was “high polyreactivity”.

In the case of “QVQLVESGGGLVQAGGSLRLSCAASGRTLGKYAMGWYRQAPGKERELVAAIRWTGGNTYYADSVKGRFTISRDNAKNTVYLQMNSLKPEDPAGYYCNAVSFGRARHGGPVYGYDYWGQGTQVTVSS”, the “polyreactivity (PSR sort gate)” value is reported as “high polyreactivity”.

With “QVQLVESGGGLVQAGGSLRLSCAASGRTLGRNAMGWYRQAPGKERELVASISSGGSTNYADSVKGRFTISRDNAKNTVYLQMNSLKPEDTAVYYCAAGYFRDYWGQGTQVTVSS” the “polyreactivity (PSR sort gate)” value was “high polyreactivity”.

For “QVQLVESGGGLVQAGGSLRLSCAASGRTLGTYAMGWYRQAPGKERELVAAISVSSGSTYYADSVKGRFTISRDTAKNTVYLQMNSLKPEDTAVYYCAALPVYHYDSWGQGTQVTVSS”, the “polyreactivity (PSR sort gate)” value was “high polyreactivity”.

In the case of “QVQLVESGGGLVQAGGSLRLSCAASGRTLGYNAMGWYSQAPGKEMDLVAAISYGGGGTYYADSVKGRCTISRDNAKNTVYLQMNSLKPEDTAVYYCAADYWYGAGLPHGTEFDYWGQGTQVTVSS”, the “polyreactivity (PSR sort gate)” value is reported as “low polyreactivity”.

For “QVQLVESGGGLVQAGGSLRLSCAASGRTLGYYAMGWYRQAPGKERELVAAISGSGGITYYADSVKGRFTISRDNAKNTVYLQMNSLKPEDTAVYYCNVDPTAKWFNYDSWGQGTQVTVSS”, the “polyreactivity (PSR sort gate)” value was “low polyreactivity”.

For “QVQLVESGGGLVQAGGSLRLSCAASGRTLIVNTMGWYRQAPGKEREFVAAIFSGASTYYADSVKGRFTISRDNAMNTDYLQINSVKPEDTAVYYCAAAVFRWSRYDYWGQGTQVTVSS”, the “polyreactivity (PSR sort gate)” value was “low polyreactivity”.

With “QVQLVESGGGLVQAGGSLRLSCAASGRTLKWYAMGWYRQAPGKERELVAAISWSGGSTYYADSVKGRFTISRDNAKNTVYLQMNSLKPEDTAVYYCAVAVTSYSSKKLYYWGQGTQVTVSS” the “polyreactivity (PSR sort gate)” value was “low polyreactivity”.

For “QVQLVESGGGLVQAGGSLRLSCAASGRTLLLNTMGWYRQAPGKERELVAAISWRDGSTYYADSVKGRFTISRDNAKNTVYLQMNSLKPEDTAVYYCNARLSGRSPYDLRFDYWGQGTQVTVSS”, the “polyreactivity (PSR sort gate)” value was “low polyreactivity”.

With “QVQLVESGGGLVQAGGSLRLSCAASGRTLLPNAMGWYRQAPGKERELVADISTSDGSTRYADSVKGRFTISRDNAKNTVYLQMNSLKPEDTAVYYCAAGSEYYSSGGVRFSFYYWGQGTQVTVSS” the “polyreactivity (PSR sort gate)” value was “low polyreactivity”.

With “QVQLVESGGGLVQAGGSLRLSCAASGRTLLYNAMGWYRQAPGKERELVAAISYRGGSTYYADSVKGRFTISRDNAKNTVYLQMNSLKPEDTAVYYCAKVTYPYIRWYYPGYDYWGQGTQVTVSS” the “polyreactivity (PSR sort gate)” value was “high polyreactivity”.

In the case of “QVQLVESGGGLVQAGGSLRLSCAASGRTLNAYAMGWYRQAPGKERELVAAITGDDGSTYYADSVKGRFTISRDNAKNTVYLQMNTLKPEDTAVYYCAAVTFSYDGYDYWGQGTQVTVSS”, the “polyreactivity (PSR sort gate)” value is reported as “low polyreactivity”.

With “QVQLVESGGGLVQAGGSLRLSCAASGRTLNDYTMGWYRQAPGKERELVAAISSSGVRTYYADSVKGRFTISRDNAKNTVYLQMNSLKPEDTAVYYAKRAGYDRRWNYDYWGQGTQVTVSS” the “polyreactivity (PSR sort gate)” value was “high polyreactivity”.

For “QVQLVESGGGLVQAGGSLRLSCAASGRTLNYNAMGWYRQAPGKERELVAAITSSGRTYYADSVKGRFTISRDNAKNTVFLQMNSLKPEDTAVYYCAASPYGRSILVRYGYWGQGTQVTVSS”, the “polyreactivity (PSR sort gate)” value was “high polyreactivity”.

With “QVQLVESGGGLVQAGGSLRLSCAASGRTLPAYAMGWYRQAPGKERELVAAISWGGGSTYYADSVKGRFTISRDNAKNTVYLQMNSLKPEDTAVYYCAVAGYWFAVAEYDYWGQGTQVTVSS” the “polyreactivity (PSR sort gate)” value was “low polyreactivity”.

With “QVQLVESGGGLVQAGGSLRLSCAASGRTLPKYVMGCYRQAPGKERELVDAISSSGDSTYYADSVKGRFTISRDNAKNTVYLQMNSLKPEDTAVYYCAKYDRNTYGYWGQGTQVTVSS” the “polyreactivity (PSR sort gate)” value was “low polyreactivity”.

For “QVQLVESGGGLVQAGGSLRLSCAASGRTLPPNDMGWYRQAPGKERELVAAITRSGGRTYYADSVKGRFTISRDNAKNTVYLQMNSLKPEDTAVYYCATYNPPYSDYSRYNYWGQGTQVTVSS”, the “polyreactivity (PSR sort gate)” value was “high polyreactivity”.

In the case of “QVQLVESGGGLVQAGGSLRLSCAASGRTLPRYAMGGYRQAPGKERELVARIRYRGVSTYYADSVKGRFTISRDNAKTSVYLQMNSLKPEDTAVYYCAARASRAGLSGYWGQGTQVTVSS”, the “polyreactivity (PSR sort gate)” value is reported as “high polyreactivity”.

In the case of “QVQLVESGGGLVQAGGSLRLSCAASGRTLPSYAMGWYRQAPGKERELVAAITGSGGRTYYADSVKGRFTISRDNAKNTVYLQMNSLKPEDTAVYYCAARQDDYGKINYYWGQGTQVTVSS”, the “polyreactivity (PSR sort gate)” value is reported as “high polyreactivity”.

In the case of “QVQLVESGGGLVQAGGSLRLSCAASGRTLQAYAMGWYRQAPGKERELVAAINSSGGTTYYADSVKGRFTISRDNAKNTVYLQMNSLKPEDTAVYYCAATYWYHGRYYWYAYDYWGQGTQVTVSS”, the “polyreactivity (PSR sort gate)” value is reported as “high polyreactivity”.

In the case of “QVQLVESGGGLVQAGGSLRLSCAASGRTLRHYAMGWYRQAPGKERELVAAISSTGSSTYYADSVKGRFTISRDNAKNTVYLQMNCLKPEDTAVYYCNAGKKYVDYGVLSSRYYWGQGTQVTVSS”, the “polyreactivity (PSR sort gate)” value is reported as “low polyreactivity”.

With “QVQLVESGGGLVQAGGSLRLSCAASGRTLRHYAMGWYRQAPGKERELVAAISSTGSSTYYADSVKGRFTISRDNAKNTVYLQMNSLKPEDTAVYYCAADKYTWDAGGVDYWGQGTQVTVSS” the “polyreactivity (PSR sort gate)” value was “low polyreactivity”.

In the case of “QVQLVESGGGLVQAGGSLRLSCAASGRTLRKYAMGWYRQAPGKERELVAAITTSGGSTYYADSVKGRFTISRDNAKNTVYLQMNSLKPDDTAVYYCNAARYYAYIGDYWGQGTQVTVSS”, the “polyreactivity (PSR sort gate)” value is reported as “high polyreactivity”.

In the case of “QVQLVESGGGLVQAGGSLRLSCAASGRTLRQYAMGWYRQAPGKERELVAAISRGGSTTYADSVKGRFTISRDNAKNTVYIQMNSLKPEDTAVYYCAAVSSKGNRHEYDYWGQGTQVTVSS”, the “polyreactivity (PSR sort gate)” value is reported as “low polyreactivity”.

For “QVQLVESGGGLVQAGGSLRLSCAASGRTLRRNTMGWYRQAPGKERELVAAISWSGGSTYYADSVKGRFTISRDNPKNTVYLQMNSLKPEDTAVYYCAKVPRIGSYEMGYWGQGTQVTVSS”, the “polyreactivity (PSR sort gate)” value was “high polyreactivity”.

For “QVQLVESGGGLVQAGGSLRLSCAASGRTLRRYAMGWYRQAPGKERELVAGISRNGGSTYYADSVKGRFTISRDNAKNTVYLQMNSLKPDDTAVYYCNKVAYPYSILRYGYWGLGTQVTVSS”, the “polyreactivity (PSR sort gate)” value was “high polyreactivity”.

In the case of “QVQLVESGGGLVQAGGSLRLSCAASGRTLRSNAMGWYRQAPGKERELVAAISSNGGSTYYADSVKGRFTISRDNAKNTVYLQMNSLKPEDTAVYYCAALSYYYSDRMDYWGQGTQVTVSS”, the “polyreactivity (PSR sort gate)” value is reported as “low polyreactivity”.

With “QVQLVESGGGLVQAGGSLRLSCAASGRTLRYYAMGWYRQAPGKERELVAAITSSDRTYYADSVKGRFTISRDNAKNTVYLQMNSLKPEVTAVYYCAAYRATQFGYYYWGQGTQVTVSS” the “polyreactivity (PSR sort gate)” value was “high polyreactivity”.

With “QVQLVESGGGLVQAGGSLRLSCAASGRTLRYYAMGWYRQAPGKERELVASISIGGSTFYADSVKGRFTISRDNAKNTVYLQMNSLKPEDTAVYYCAAENFWQTKEYDYWGQGTQVTVSS” the “polyreactivity (PSR sort gate)” value was “low polyreactivity”.

In the case of “QVQLVESGGGLVQAGGSLRLSCAASGRTLSGYAMGWYRQAPGKERELVAVITSGGSTYYADSVKGRFTISRDNAKNTVYLQMNSVKPEDTAVYYCSARRGRRLQDSQYWGQGTQVTVSS”, the “polyreactivity (PSR sort gate)” value is reported as “high polyreactivity”.

In the case of “QVQLVESGGGLVQAGGSLRLSCAASGRTLSHYAMGWYRQAPGKERELVAAITRSGGSTYYADSVKGRFTISRDNAKNTVYLQMNSLKPEDTAVYYCNKTLYTTYDYWGQGTQVTVSS”, the “polyreactivity (PSR sort gate)” value is reported as “low polyreactivity”.

For “QVQLVESGGGLVQAGGSLRLSCAASGRTLSYYAMGWYRQAPGKHRELVAAITYRAGRTYYADSVKGRFTISRDNAKYTVYLQLNSLKPEVTAVYYCYAVKSTGYGYWGQGTQVTVSS”, the “polyreactivity (PSR sort gate)” value was “high polyreactivity”.

For “QVQLVESGGGLVQAGGSLRLSCAASGRTLTRYAMGWYRQAPGKERELVATISRCGSTNYADSVKGRFTISRDNGKNTVYLQMNSLKPEDTAVYYCAARGRLTAEFDYWGQGTQVTVSS”, the “polyreactivity (PSR sort gate)” value was “low polyreactivity”.

For “QVQLVESGGGLVQAGGSLRLSCAASGRTLVDYGMGWYRQPPGKERELVAVITSGGSTYYADSVKGRFTISRDNAKNTVYLVMNSLKPEDTAVYYCNARHPYYTVQTGGYDYWGQGTQVTVSS”, the “polyreactivity (PSR sort gate)” value was “low polyreactivity”.

For “QVQLVESGGGLVQAGGSLRLSCAASGRTLVGNAMGWYRQAPGKERELVAAISWSGGSTNYADSVKGRFTISRDNAKNTVYLQMNSLKPEDTAVYYCAASVYTYRYWDYYWGQGTQVTVSS”, the “polyreactivity (PSR sort gate)” value was “high polyreactivity”.

In the case of “QVQLVESGGGLVQAGGSLRLSCAASGRTLVKNAMGWYRQAPGKERELVAAISTSGGRTYYADSVKGRFTISRDNAKNTVYLQMNSLKPEDTAVYYCAAVLYATRPVYGFDSWGQGTQVTVSS”, the “polyreactivity (PSR sort gate)” value is reported as “high polyreactivity”.

For “QVQLVESGGGLVQAGGSLRLSCAASGRTLVLYVMGWYRQAPGKERELVAAISSGGSTNYADSVKGRFTISRDNAKNTVYLQMNSLKPEDTAVYYCAARFVLRRDYGYGGQGTQVTVSS”, the “polyreactivity (PSR sort gate)” value was “high polyreactivity”.

In the case of “QVQLVESGGGLVQAGGSLRLSCAASGRTLVPYAMGWYRQAPGKERELVAAINSSGGSTYYADSVKGRFTISRDNAKNTVYLQMNSLKPEDTAVYYCNVQSVHFRLWKDNYWGQGTQVTVSS”, the “polyreactivity (PSR sort gate)” value is reported as “high polyreactivity”.

In the case of “QVQLVESGGGLVQAGGSLRLSCAASGRTLVRYTMGWYRQAPGKERELVASISQRGGTTYYADSVKGRFTISRDNAKNTVYLQMNSLKPEDTAVYYCNKASVSGSSGGGYESWGQGTQVTVSS”, the “polyreactivity (PSR sort gate)” value is reported as “low polyreactivity”.

For “QVQLVESGGGLVQAGGSLRLSCAASGRTLVVYAMGWYRQAPGKERELVADINWSGGRTYYADSVKGRFTISRDNAKNTVYLQMNSLKPEDTAVYYWAADLSWRQYYREYDYWGQGTQVSVSS”, the “polyreactivity (PSR sort gate)” value was “high polyreactivity”.

In the case of “QVQLVESGGGLVQAGGSLRLSCAASGRTLVYYAMGWYRQAPGKERELVAAISWSGSRTYYADSVKGRFTISRDNAKNTVYLQMNSLKPEDTAVYYCATLTFRTNGTMDYWGQGTQVTVSS”, the “polyreactivity (PSR sort gate)” value is reported as “high polyreactivity”.
